The text below walks through data of patent US10369187B2, “Peptide regulators of JNK family kinases” (Vanderbilt University, priority 2017, dated 2019).

The target of assay [1] is MKK7-JNK3 module (Homo sapiens, UniProt O14733+P53779). Nature of the assay: In vitro phosphorylation of JNK3α2 by MKK7 (reconstituted module). It counts as biochemical. As for the experimental part: Next, it was tested whether T1A acts as a scaffold facilitating signaling. To this end, experiments used purified proteins, because they provide the most definitive data supporting a direct interaction. As purified ASK1 is not available, MKK4-JNK3 and MKK7-JNK3 modules were reconstituted in the absence and presence of varying concentrations of synthetic purified T1A peptide and measured JNK3 phosphorylation (FIG. 2A). […] This dependence, where signaling is increased at lower scaffold concentrations and decreased at higher, was also found for scaffolding of these modules by full-length arrestin-3^20. It is believed to be a characteristic of simple scaffolds, which act by bringing the enzyme and substrate together, as lower scaffold concentrations make the formation of complete scaffold-enzyme-substrate ternary complexes likely, whereas higher concentrations increase the probability of formation of incomplete enzyme-scaffold and substrate-scaffold binary complexes, suppressing the signaling^25,26. […]
Chain of MKK7-JNK3 module (Homo sapiens, UniProt O14733+P53779) (O14733 whole entry): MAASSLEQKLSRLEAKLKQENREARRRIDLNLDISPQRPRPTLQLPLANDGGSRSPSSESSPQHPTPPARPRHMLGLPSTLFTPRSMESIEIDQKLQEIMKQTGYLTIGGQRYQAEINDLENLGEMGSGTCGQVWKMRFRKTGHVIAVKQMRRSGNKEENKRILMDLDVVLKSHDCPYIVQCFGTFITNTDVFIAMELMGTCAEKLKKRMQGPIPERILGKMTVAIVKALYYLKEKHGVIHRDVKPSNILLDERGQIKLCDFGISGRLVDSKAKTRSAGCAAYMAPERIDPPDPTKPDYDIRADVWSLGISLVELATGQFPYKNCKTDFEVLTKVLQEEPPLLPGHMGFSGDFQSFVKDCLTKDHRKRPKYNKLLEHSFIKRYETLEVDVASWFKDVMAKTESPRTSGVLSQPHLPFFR
Chain of MKK7-JNK3 module (Homo sapiens, UniProt O14733+P53779) (P53779 whole entry): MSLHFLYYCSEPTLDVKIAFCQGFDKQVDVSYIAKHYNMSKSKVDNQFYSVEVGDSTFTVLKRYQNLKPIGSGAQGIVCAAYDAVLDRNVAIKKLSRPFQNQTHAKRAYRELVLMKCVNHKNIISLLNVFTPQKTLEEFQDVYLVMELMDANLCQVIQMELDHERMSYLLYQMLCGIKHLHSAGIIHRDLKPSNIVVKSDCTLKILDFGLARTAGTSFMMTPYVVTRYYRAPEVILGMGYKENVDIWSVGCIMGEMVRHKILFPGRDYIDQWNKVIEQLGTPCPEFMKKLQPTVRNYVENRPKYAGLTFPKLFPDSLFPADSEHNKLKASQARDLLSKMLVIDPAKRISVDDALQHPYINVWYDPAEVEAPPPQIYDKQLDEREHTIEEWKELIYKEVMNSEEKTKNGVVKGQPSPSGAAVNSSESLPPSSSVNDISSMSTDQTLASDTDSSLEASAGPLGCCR
JNK3α2^20,23, and MKK4 and MKK7^17,20 were expressed in E. coli and purified as previously described^40. The effect of arrestin-3 and MBP-T1A on the phosphorylation of JNK3α2 by MKK7 or MKK4 was analyzed by an in vitro kinase assay, as described^19,20. […] Phosphorylated JNK3α2 was visualized by rabbit anti-phospho JNK antibody (Cell Signaling) and the level of JNK phosphorylation was quantified.

In assay [2] the target is MKK4-JNK3 module (Homo sapiens, UniProt P45985+P53779). Nature of the assay: In vitro phosphorylation of JNK3α2 by MKK4 (reconstituted module). It is filed as biochemical. As for the experimental part: Next, it was tested whether T1A acts as a scaffold facilitating signaling. To this end, experiments used purified proteins, because they provide the most definitive data supporting a direct interaction. As purified ASK1 is not available, MKK4-JNK3 and MKK7-JNK3 modules were reconstituted in the absence and presence of varying concentrations of synthetic purified T1A peptide and measured JNK3 phosphorylation (FIG. 2A). […] This dependence, where signaling is increased at lower scaffold concentrations and decreased at higher, was also found for scaffolding of these modules by full-length arrestin-3^20. It is believed to be a characteristic of simple scaffolds, which act by bringing the enzyme and substrate together, as lower scaffold concentrations make the formation of complete scaffold-enzyme-substrate ternary complexes likely, whereas higher concentrations increase the probability of formation of incomplete enzyme-scaffold and substrate-scaffold binary complexes, suppressing the signaling^25,26. The optimal concentration of a scaffolding protein for signaling depends on its affinity for the proteins it scaffolds^20,25,26.
Chain of MKK4-JNK3 module (P45985 whole entry): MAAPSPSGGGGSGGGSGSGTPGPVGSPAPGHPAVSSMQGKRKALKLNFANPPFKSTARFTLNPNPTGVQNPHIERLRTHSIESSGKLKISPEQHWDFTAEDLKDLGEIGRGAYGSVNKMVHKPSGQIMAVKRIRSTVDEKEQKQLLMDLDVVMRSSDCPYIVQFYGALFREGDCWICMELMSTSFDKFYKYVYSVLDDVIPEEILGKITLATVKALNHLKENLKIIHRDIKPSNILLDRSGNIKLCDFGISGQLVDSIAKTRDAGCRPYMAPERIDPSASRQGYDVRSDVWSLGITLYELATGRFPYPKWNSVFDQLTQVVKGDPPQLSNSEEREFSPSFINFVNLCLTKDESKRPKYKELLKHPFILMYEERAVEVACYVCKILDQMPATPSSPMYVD
Chain of MKK4-JNK3 module (P53779 whole entry): as the sequence (P53779 whole entry) above
JNK3α2^20,23, and MKK4 and MKK7^17,20 were expressed in E. coli and purified as previously described^40. The effect of arrestin-3 and MBP-T1A on the phosphorylation of JNK3α2 by MKK7 or MKK4 was analyzed by an in vitro kinase assay, as described^19,20. Briefly, the assays were conducted in 10 μL containing the following final concentrations: 50 nM active MKK7 or MKK4, 1 μM JNK3α2, and indicated concentrations of arrestin-3 or T1A. The mixtures were incubated individually at 30° C. for 10 sec. The reactions were stopped by the addition of 15 μL of Laemmli SDS sample buffer (Sigma) and 2 μl of total reaction sample was subjected to SDS-PAGE (8%) and transferred polyvinylidene difluoride (PVDF) membranes (Millipore, Bedford, Mass.). Phosphorylated JNK3α2 was visualized by rabbit anti-phospho JNK antibody (Cell Signaling) and the level of JNK phosphorylation was quantified.

In assay [3] the test system is MKK7-JNK3 module. The assay can be described thus: JNK3 phosphorylation by co-expressed MKK7 in cells. It is filed as cell-based, African green monkey. The conditions noted are these: YFP-T1A co-expressed with MKK7 in COS7 cells. As for the experimental part: To test whether T1A can promote JNK3 phosphorylation by MKKs in cells, MKK4 or MKK7 was co-expressed with YFP-T1A in COS7 cells, using YFP and full-length arrestin-3 as negative and positive controls, respectively (FIG. 2C).
COS-7 African green monkey cells were maintained in DMEM supplemented with 10% heat-inactivated FBS (Invitrogen), penicillin, and streptomycin at 37° C. in a humidified incubator with 5% CO2. The cells were plated at 80-90% confluence and transfected using Lipofectamine 2000 (Invitrogen) according to the manufacturer's instructions. Cells were used 48 h post-transfection and serum-starved overnight before experiments.
COS-7 cells were incubated with phosphatase inhibitors (50 mM NaF and 10 mM Na3VO4) in serum-free medium for 15 min at 37° C.; washed with cold PBS; and lysed with SDS lysis buffer containing 1% SDS, 10 mM Tris (pH7.4), 10 mM NaF, 100 μM Na3VO4, 2 mM EDTA, 2 mM benzamidine and 1 mM PMSF. JNKs activity was assayed by Western blotting using an antibody specific for phosphorylated JNK to detect phosphorylated (active) JNKs^17,20,23. […] Protein was measured using the Bio-Rad Coomassie Blue assay. […] Protein bands were detected by enhanced chemiluminescence (ECL, Pierce), followed by exposure to x-ray film. To quantify phospho-JNKs, serial dilutions of anisomycin (1 μg/ml)-stimulated HEK-A cell lysates were used to ensure that all samples were in linear range. […]

“MGEKPGTRVFKKSSPNCKLTVYLGK (bovine) [T1A, first 25 residues of arrestin-3]”: the “optimal concentration relative to full-length arrestin-3, MKK7-JNK3 module” value in assay [1] is on record as ~10 times lower. In addition, the “JNK3 phosphorylation level by MKK7 as a function of T1A concentration” value in assay [1] (50 nM MKK7, 1 μM JNK3α2, 10 sec, 30° C., synthetic purified peptide) was “bell-shaped curves”. Also, in assay [2], the “optimal concentration for promoting JNK3 phosphorylation by MKK4 compared with MKK7-JNK3 module” value is on record as “lower than for MKK7-JNK3 module” and the “optimal concentration relative to full-length arrestin-3, MKK4-JNK3 module” value is ~10 times lower. For the same sequence, the “JNK3 phosphorylation level by MKK4 as a function of T1A concentration” value in assay [2] (50 nM MKK4, 1 μM JNK3α2, 10 sec, 30° C., synthetic purified peptide) is on record as “bell-shaped curves”. Further, in assay [3], the “JNK3 phosphorylation by MKK7 in cells” value is “necessary and sufficient to promote the signaling”.
